Legend:
[1] = molecular target: β-gal RNCs purified in low-salt buffer without the second sucrose cushion; experiment: affinity purification with mass spectrometry
[2] = molecular target: RNC_(1-180) (Escherichia coli BL21(DE3)); experiment: co-sedimentation
[3] = molecular target: RNC_(1-646) (Escherichia coli BL21(DE3)); experiment: co-sedimentation
[4] = molecular target: longer NCs; experiment: co-sedimentation
[5] = molecular target: BADAN-labelled TF_(R14C) (Escherichia coli) (UniProt P0A850); experiment: other fluorescence titration

Sequence of DnaJ (endogenous) (P08622 whole entry): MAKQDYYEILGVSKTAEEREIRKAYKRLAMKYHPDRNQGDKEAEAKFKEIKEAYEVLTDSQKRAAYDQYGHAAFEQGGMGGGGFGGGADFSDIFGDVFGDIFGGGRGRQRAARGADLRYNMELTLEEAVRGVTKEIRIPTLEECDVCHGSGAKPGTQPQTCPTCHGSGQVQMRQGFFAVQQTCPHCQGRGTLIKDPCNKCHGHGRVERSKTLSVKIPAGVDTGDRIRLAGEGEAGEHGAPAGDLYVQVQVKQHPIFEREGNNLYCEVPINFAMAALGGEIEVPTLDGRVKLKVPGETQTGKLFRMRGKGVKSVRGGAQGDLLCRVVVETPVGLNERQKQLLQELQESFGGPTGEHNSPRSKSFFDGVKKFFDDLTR

DnaJ (endogenous) (from UniProt P08622 1-376) (natural protein)
occupancy [1]: < 10%

DnaK (endogenous) (from UniProt P0A6Y8 1-638) (natural protein)
occupancy [1]: < 10%

DnaK, recombinant (from UniProt P0A6Y8 1-638) (natural protein)
stoichiometry N [2]: 1 DnaK per NC | stoichiometry N [3]: 2 DnaK per NC | stoichiometry N (molecules of DnaK per NC) [4]: 2 to 3

RNC_(1-646) (complex)
Kd [5]: 21 nM

Trigger factor, wild type, recombinant (from UniProt P0A850 1-432) (natural protein)
stoichiometry N [3]: 1 TF per RNC
